Test results published in patent publication US20220195063A1 (BYONDIS B V, published 2022).

Columns and labels:
[1] = molecular target: T1, human SIRPα1 (huSIRPα1), protein antigen (human, UniProt P78324 31-370, limits assumed, biotinylated in the SPR assay); experiment: ELISA, antigen coated
T1 construct: Coated on the plate in ELISA, biotinylated and captured in SPR; also called v2
Description: (§1) ELISA assay: Solutions of huSIRPα₁, huSIRPαBIT, huSIRPβ₁ᵥ₁, huSIRPβ₁ᵥ₂, huSIRPγ and cySIRPα in phosphate buffered saline (PBS) were each added to a multiple well black polystyrene plate for ELISA and allowed to adhere for 1 h at RT. Unbound protein was removed with three washing steps using standard washing buffer. Subsequently, blocking buffer was added to the wells. After 1 h incubation at RT, the wells were washed three times with standard washing buffer. The antibodies in buffer at various concentrations were added to the wells and incubated at RT for 1 h. Unbound antibodies were removed with three washing steps using standard washing buffer. Goat anti human IgG (Fab′)₂:horse radish peroxidase (HRP) in buffer was added to the wells and incubated at RT for 1 h. 3,3′,5,5′-Tetramethylbenzidine (TMB) was added and after sufficient colour development HCl was added. Absorbance was read at 450 nm/620 nm.

[2] = molecular target: T2, human SIRPβ1v2 (huSIRPβ1v2) (human, UniProt Q5TFQ8 30-371); experiment: ELISA, antigen coated
T2 construct: Coated on the plate in ELISA; Only the Ensembl protein number is printed; also called huSIRPß1v2
Description: as §1

[3] = molecular target: T3, cynomolgus SIRPα (cySIRPα), protein antigen (cynomolgus monkey, UniProt A0A2K5VYQ9 31-369); experiment: ELISA, antigen coated
T3 construct: Coated on the plate in ELISA
T3 sequence: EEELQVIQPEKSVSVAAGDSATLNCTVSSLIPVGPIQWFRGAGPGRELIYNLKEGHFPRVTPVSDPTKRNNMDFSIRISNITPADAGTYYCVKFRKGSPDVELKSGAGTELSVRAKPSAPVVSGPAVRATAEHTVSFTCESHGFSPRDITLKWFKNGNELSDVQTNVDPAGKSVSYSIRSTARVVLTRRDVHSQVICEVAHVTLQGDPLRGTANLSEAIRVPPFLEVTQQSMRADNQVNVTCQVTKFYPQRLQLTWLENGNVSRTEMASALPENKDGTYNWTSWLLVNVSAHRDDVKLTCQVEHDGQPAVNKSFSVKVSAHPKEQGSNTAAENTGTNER
Description: as §1

[4] = molecular target: human SIRPαBIT (huSIRPαBIT), protein antigen (human) (UniProt P78324); experiment: ELISA, antigen coated
[5] = molecular target: human SIRPβ1v1 (huSIRPβ1v1) (human) (UniProt O00241); experiment: ELISA, antigen coated
human SIRPγ (huSIRPγ) = molecular target: T4, human SIRPγ (huSIRPγ) (human, UniProt Q9P1W8 29-360, limits assumed, biotinylated in the SPR assay); experiment: ELISA, antigen coated; ELISA (Table 2); finite EC50, below the 100,000 ng/ml cap
T4 construct: Coated on the plate in ELISA, biotinylated and captured in SPR
Description: as §1

[6] = molecular target: human SIRPαBIT expressed on cells (human) (UniProt P78324); experiment: flow cytometry, U937 cells
Chain of human SIRPαBIT expressed on cells (human) (P78324 31-504): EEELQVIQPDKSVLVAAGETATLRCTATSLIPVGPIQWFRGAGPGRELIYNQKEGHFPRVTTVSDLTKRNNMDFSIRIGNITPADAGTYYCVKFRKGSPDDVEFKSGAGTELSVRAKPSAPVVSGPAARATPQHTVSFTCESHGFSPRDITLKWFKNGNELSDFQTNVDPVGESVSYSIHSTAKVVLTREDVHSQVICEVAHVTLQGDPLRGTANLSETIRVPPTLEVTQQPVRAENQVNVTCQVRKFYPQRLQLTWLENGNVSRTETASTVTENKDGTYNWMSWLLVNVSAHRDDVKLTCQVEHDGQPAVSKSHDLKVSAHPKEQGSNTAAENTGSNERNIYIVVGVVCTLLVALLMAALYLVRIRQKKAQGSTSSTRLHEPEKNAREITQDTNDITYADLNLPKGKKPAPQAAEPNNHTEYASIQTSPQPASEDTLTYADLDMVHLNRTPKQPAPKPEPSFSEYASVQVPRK

Chain of human SIRPβ1v1 (huSIRPβ1v1) (human) (O00241 30-371): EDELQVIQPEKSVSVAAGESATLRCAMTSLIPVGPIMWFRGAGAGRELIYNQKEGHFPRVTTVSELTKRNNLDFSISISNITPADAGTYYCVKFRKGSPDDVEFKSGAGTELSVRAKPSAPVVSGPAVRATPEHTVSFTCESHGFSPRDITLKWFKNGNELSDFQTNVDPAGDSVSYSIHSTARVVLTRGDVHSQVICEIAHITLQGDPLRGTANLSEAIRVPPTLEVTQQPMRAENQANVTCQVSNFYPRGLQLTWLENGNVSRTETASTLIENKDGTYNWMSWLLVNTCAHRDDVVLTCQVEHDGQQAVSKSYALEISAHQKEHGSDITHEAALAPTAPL
T4 sequence (Q9P1W8 29-360 limits assumed): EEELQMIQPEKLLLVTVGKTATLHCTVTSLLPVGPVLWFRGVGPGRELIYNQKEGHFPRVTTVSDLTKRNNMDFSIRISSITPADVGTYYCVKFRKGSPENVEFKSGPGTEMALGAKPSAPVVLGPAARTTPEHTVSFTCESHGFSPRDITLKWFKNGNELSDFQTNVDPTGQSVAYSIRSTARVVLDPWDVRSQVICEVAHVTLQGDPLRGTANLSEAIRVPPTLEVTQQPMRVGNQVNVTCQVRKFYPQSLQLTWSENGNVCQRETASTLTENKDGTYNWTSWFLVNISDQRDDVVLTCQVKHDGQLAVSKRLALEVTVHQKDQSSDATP
T2 sequence (Q5TFQ8 30-371 limits assumed): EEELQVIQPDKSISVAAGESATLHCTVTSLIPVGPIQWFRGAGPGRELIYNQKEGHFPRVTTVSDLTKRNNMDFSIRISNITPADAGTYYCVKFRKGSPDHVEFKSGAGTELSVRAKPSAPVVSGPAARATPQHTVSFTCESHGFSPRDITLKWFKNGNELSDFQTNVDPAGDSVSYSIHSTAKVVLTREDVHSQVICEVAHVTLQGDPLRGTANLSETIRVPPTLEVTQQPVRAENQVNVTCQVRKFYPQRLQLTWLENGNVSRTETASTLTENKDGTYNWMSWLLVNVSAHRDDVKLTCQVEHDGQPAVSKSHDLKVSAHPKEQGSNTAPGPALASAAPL
T1 sequence (P78324 other isoform, or with tags, fused parts or gaps limits assumed): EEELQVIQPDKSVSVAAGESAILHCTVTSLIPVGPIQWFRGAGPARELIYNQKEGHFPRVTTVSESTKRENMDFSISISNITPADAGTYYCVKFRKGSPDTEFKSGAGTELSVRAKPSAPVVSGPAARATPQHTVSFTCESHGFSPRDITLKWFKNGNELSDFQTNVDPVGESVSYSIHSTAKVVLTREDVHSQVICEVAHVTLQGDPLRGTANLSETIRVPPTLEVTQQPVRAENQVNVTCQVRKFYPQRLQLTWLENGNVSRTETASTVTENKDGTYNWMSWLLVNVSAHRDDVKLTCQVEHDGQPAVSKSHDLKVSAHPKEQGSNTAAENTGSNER
Chain of human SIRPαBIT (huSIRPαBIT), protein antigen (human) (P78324 31-370): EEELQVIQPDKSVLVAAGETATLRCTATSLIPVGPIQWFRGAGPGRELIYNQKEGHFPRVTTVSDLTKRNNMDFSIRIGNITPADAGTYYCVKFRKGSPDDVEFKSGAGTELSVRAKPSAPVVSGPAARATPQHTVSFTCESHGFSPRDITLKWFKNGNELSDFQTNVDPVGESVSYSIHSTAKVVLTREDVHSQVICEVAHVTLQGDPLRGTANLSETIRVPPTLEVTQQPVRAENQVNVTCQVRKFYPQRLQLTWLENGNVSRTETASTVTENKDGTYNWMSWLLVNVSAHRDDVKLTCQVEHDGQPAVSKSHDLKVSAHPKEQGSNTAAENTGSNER

- EC50 [1]: 0.015 µg/mL
- EC50 [2]: 0.089 µg/mL
- EC50 [3]: 0.036 µg/mL
- EC50 [4]: 0.024 µg/mL
- EC50 [5]: > 100 µg/mL
- EC50 (human SIRPγ (huSIRPγ)): 5.22 µg/mL
- EC50 [6]: 0.22 µg/mL
B1: anti-SIRPα antibody 3 (antibody, human IgG1, kappa, L234A L235A, V domains shown)
VH: QSVEESGGRLVTPGTPLTLACTVSGFSLISYYISWVRQAPEKGLEYIGIINIGGGASYASWAKGRFTISKTSTTVDLKITSPTPEDTATYFCAMSYGMDTGAFNIWGPGTLVTVSL
VL: AQVLTQTPASVSAAVGGTVTISCQSSESVYKNNFLSWYQQKPGKPPKLLIYGASTLASGVPSRFKGSGSGTQFTLTISDLESDDAATYFCQGGYRTDIYPFGGGTEVVVKR
notes: Rabbit variable regions on human IgG1 LALA / kappa
